From patent publication US20240400635A1 (Novo Nordisk, published 2024)

Tests used:
Test in all cases: cell-based or functional assay
human GLP-1 receptor [1] = biological target: T1, human GLP-1 receptor (human, UniProt P43220 24-463)
FGF receptor/BKL complex = FGF receptor/BKL complex (human, UniProt Q86Z14 1-1044)
human GLP-1 receptor [2] = biological target: T1, human GLP-1 receptor; remark: listed apart in the source

FGF receptor/BKL complex, sequence (Q86Z14 whole entry, one chain of several): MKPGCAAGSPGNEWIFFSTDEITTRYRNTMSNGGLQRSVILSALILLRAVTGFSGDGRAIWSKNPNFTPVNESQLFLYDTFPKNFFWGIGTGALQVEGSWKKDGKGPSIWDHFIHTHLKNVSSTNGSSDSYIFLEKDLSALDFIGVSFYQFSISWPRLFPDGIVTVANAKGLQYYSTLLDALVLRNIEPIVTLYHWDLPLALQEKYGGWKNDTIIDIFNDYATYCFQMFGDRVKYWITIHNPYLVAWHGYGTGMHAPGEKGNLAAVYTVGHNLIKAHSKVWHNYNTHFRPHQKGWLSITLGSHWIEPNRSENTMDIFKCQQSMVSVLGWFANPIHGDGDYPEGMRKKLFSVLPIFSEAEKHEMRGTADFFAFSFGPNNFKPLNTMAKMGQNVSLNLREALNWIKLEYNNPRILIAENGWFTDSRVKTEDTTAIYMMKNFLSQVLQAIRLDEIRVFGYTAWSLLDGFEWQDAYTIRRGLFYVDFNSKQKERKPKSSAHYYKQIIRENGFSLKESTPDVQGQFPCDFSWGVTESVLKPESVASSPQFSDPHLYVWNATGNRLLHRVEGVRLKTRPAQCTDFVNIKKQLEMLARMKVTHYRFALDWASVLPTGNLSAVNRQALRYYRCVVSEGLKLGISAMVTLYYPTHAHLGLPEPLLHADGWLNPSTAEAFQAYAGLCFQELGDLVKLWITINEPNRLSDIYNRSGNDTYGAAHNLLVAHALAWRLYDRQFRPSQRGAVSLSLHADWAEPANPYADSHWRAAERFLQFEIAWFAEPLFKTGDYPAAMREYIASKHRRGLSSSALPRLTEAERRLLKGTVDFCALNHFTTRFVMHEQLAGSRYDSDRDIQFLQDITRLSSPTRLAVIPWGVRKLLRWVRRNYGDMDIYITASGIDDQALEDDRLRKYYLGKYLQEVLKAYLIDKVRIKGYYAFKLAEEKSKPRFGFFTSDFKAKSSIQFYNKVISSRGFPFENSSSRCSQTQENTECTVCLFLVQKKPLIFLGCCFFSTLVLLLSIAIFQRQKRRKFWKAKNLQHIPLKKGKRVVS

| Binder | GLP-1 receptor potency [EC50] pM 0% HSA (human GLP-1 receptor [1]) | GLP-1 receptor potency [EC50] pM 1% HSA (human GLP-1 receptor [1]) | FGF1 receptor potency [EC50] nM 0.1% HSA (FGF receptor/BKL complex) | FGF21 receptor potency [EC50] nM 0% HSA (FGF receptor/BKL complex) | GLP-1R potency loss against Chem. 24, absence of HSA (human GLP-1 receptor [2]) | GLP-1R potency loss against Chem. 24, presence of HSA (human GLP-1 receptor [2]) |
| --- | --- | --- | --- | --- | --- | --- |
| {S27-[(28S)-(28,46-Dicarboxy-2,7,16,25,30-pentaoxo-9,12,18,21-tetraoxa-3,6,15,24,29-pentaazahexatetracontan-1-yl)]-[Gly8,36,Glu22,Cys27]-GLP-1(human)-(7-37)-pep … (ligand, Cys27 of the GLP-1 part (GLP-1(7-37) numbering; residue 21 of the chain) S-alkylated with (28S)-(28,46-Dicarboxy-2,7,16,25,30-pentaoxo-9,12,18,21-tetraoxa-3,6,15,24,29-pentaazahexatetracontan-1-yl) (substituent Chem. 7)) HGEGTFTSDVSSYLEEQAAKCFIAWLVKGGGGAQPGAQPGAQPGAQPGAQPGAQPGAQPGAQPGAQPGAQPGAQPGAQPGAQPGAQPGAQPGAQPGAQPGAQPGAQPGAQPGAQPGAQPGAQPGAQPGAQPGAQPGAQPGAQPGAQPGAQPGAQPGAQPAHPIPDSSPLLQFGGQVRQRYLYTDDAQQTEAHLEIREDGTVGGAADQSPESLLQLKALKPGVIQILGVKTSRFLCQRPDGALYGSLHFDPEACSFRELLLEDGYNVYQSEAHGLPLHLPGQKSPHRDPAPRGPARFLPLPGLPPALPEPPGILAPQPPDVGSSDPLSLVGGSQGRSPSYES | 9.8 pM | 203 pM | 1.42 nM | 0.67 nM | – | – |
| [8G, 22E, 26R, 36G]GLP-1(7-37)-(GAQP)x2, … (ligand, Cys of the spacer (residue 40 of the chain) S-alkylated with substituent Chem. 7) HGEGTFTSDVSSYLEEQAAREFIAWLVKGGGGAQPGAQPCGAQPAHPIPDSSPLLQFGGQVRQRYLYTDDAQQTEAHLEIREDGTVGGAADQSPESLLQLKALKPGVIQILGVKTSRFLCQRPDGALYGSLHFDPEACSFRELLLEDGYNVYQSEAHGLPLHLPGQKSPHRDPAPRGPARFLPLPGLPPALPEPPGILAPQPPDVGSSDPLSLVGGSQGRSPSYAS | 28.2 pM | 222 pM | 0.57 nM | 0.32 nM | – | – |
| S{Beta-27}-[2-[2-[[2-[2-[2-[[2-[2-[2-[[(4S)-4-carboxy-4-(17-carboxyheptadecanoyl-amino)butanoyl]amino]ethoxy]ethoxy]acetyl]amino]ethoxy]ethoxy]acetyl]amino]-eth … (ligand, Cys27 of the GLP-1 part (GLP-1(7-37) numbering; residue 21 of the chain) S-alkylated with substituent Chem. 7) HGEGTFTSDVSSYLEEQAAKCFIAWLVKGGGGAQPGAQPGAQPGAQPGAQPGAQPGAQPGAQPAHPIPDSSPLLQFGGQVRQRYLYTDDAQQTEAHLEIREDGTVGGAADQSPESLLQLKALKPGVIQILGVKTSRFLCQRPDGALYGSLHFDPEACSFRELLLEDGYNVYQSEAHGLPLHLPGQKSPHRDPAPRGPARFLPLPGLPPALPEPPGILAPQPPDVGSSDPLSLVGGSQGRSPSYAS | 15.7 pM | 106 pM | 0.45 nM | 0.24 nM | – | – |
| S{Beta-27}-[2-[2-[[2-[2-[2-[[2-[2-[2-[[(4S)-4-carboxy-4-(17-carboxyheptadecanoyl-amino)butanoyl]amino]ethoxy]ethoxy]acetyl]amino]ethoxy]ethoxy]acetyl]amino]-eth … (ligand, Cys27 of the GLP-1 part (GLP-1(7-37) numbering; residue 21 of the chain) S-alkylated with substituent Chem. 7) HGEGTFTSDVSSYLEEQAAKCFIAWLVKGGGGAQPGAQPGAQPGAQPGAQPGAQPGAQPGAQPAHPIPDSSPLLQFGGQVRQRYLYTDDAQQTEAHLEIREDGTVGGAADQSPESLLQLKALKPGVIQILGVKTSRFLCQRPDGALYGSLHFDPEACSFRELLLEDGYNVYQSEAHGLPLHLPGQKSPHRDPAPRGPARFLPLPGLPPALPEPPGILAPQPPDVGSSDPLSLVGGSQGRSPSYES | 9.8 pM | 66.6 pM | 0.87 nM | 0.41 nM | – | – |
| S{Beta-27}-[2-[2-[[2-[2-[2-[[2-[2-[2-[[(4S)-4-carboxy-4-(17-carboxyheptadecanoyl-amino)butanoyl]amino]ethoxy]ethoxy]acetyl]amino]ethoxy]ethoxy]acetyl]amino]-eth … (ligand, Cys27 of the GLP-1 part (GLP-1(7-37) numbering; residue 21 of the chain) S-alkylated with substituent Chem. 7) HGEGTFTSDVSSYLEEQAAKCFIAWLVKGGGGAQPGAQPGAQPGAQPGAQPGAQPGAQPGAQPGAQPGAQPGAQPGAQPGAQPGAQPGAQPGAQPAHPIPDSSPLLQFGGQVRQRYLYTDDAQQTEAHLEIREDGTVGGAADQSPESLLQLKALKPGVIQILGVKTSRFLCQRPDGALYGSLHFDPEACSFRELLLEDGYNVYQSEAHGLPLHLPGQKSPHRDPAPRGPARFLPLPGLPPALPEPPGILAPQPPDVGSSDPLSLVGGSQGRSPSYES | 9.5 pM | 103 pM | 1.14 nM | 0.47 nM | – | – |
| S{Beta-36}-[2-[2-[[2-[2-[2-[[2-[2-[2-[[(4S)-4-carboxy-4-(17-carboxyheptadecanoyl-amino)butanoyl]amino]ethoxy]ethoxy]acetyl]amino]ethoxy]ethoxy]acetyl]amino]-eth … (ligand, Cys36 of the GLP-1 part (GLP-1(7-37) numbering; residue 30 of the chain) S-alkylated with substituent Chem. 7) HGEGTFTSDVSSYLEEQAAREFIAWLVKGCGGAQPGAQPGAQPGAQPAHPIPDSSPLLQFGGQVRQRYLYTDDAQQTEAHLEIREDGTVGGAADQSPESLLQLKALKPGVIQILGVKTSRFLCQRPDGALYGSLHFDPEACSFRELLLEDGYNVYQSEAHGLPLHLPGQKSPHRDPAPRGPARFLPLPGLPPALPEPPGILAPQPPDVGSSDPLSLVGGSQGRSPSYES | 54.6 pM | 394 pM | 0.73 nM | 0.41 nM | – | – |
| S{Beta-26}-[2-[2-[[2-[2-[2-[[2-[2-[2-[[(4S)-4-carboxy-4-(17-carboxyheptadecanoyl-amino)butanoyl]amino]ethoxy]ethoxy]acetyl]amino]ethoxy]ethoxy]acetyl]amino]-eth … (ligand, Cys26 of the GLP-1 part (GLP-1(7-37) numbering; residue 20 of the chain) and Cys180 of the FGF21 part (FGF21(1-181) numbering; residue 228 of the chain) each S-alkylated with substituent Chem. 7) HGEGTFTSDVSSYLEEQAACEFIAWLVKGGGGAQPGAQPGAQPGAQPAHPIPDSSPLLQFGGQVRQRYLYTDDAQQTEAHLEIREDGTVGGAADQSPESLLQLKALKPGVIQILGVKTSRFLCQRPDGALYGSLHFDPEACSFRELLLEDGYNVYQSEAHGLPLHLPGQKSPHRDPAPRGPARFLPLPGLPPALPEPPGILAPQPPDVGSSDPLSLVGPSQGRSPSYCS | 224 pM | 4410 pM | 8.97 nM | 0.24 nM | 40 fold | 26 fold |
| S{Beta-27}-[2-[2-[[2-[2-[2-[[2-[2-[2-[[(4S)-4-carboxy-4-(17-carboxyheptadecanoyl-amino)butanoyl]amino]ethoxy]ethoxy]acetyl]amino]ethoxy]ethoxy]acetyl]amino]-eth … (ligand, Cys27 of the GLP-1 part (GLP-1(7-37) numbering; residue 21 of the chain) and Cys180 of the FGF21 part (FGF21(1-181) numbering; residue 228 of the chain) each S-alkylated with substituent Chem. 7) HGEGTFTSDVSSYLEEQAARCFIAWLVKGGGGAQPGAQPGAQPGAQPAHPIPDSSPLLQFGGQVRQRYLYTDDAQQTEAHLEIREDGTVGGAADQSPESLLQLKALKPGVIQILGVKTSRFLCQRPDGALYGSLHFDPEACSFRELLLEDGYNVYQSEAHGLPLHLPGQKSPHRDPAPRGPARFLPLPGLPPALPEPPGILAPQPPDVGSSDPLSLVGPSQGRSPSYCS | 11.4 pM | 389 pM | 8 nM | 1.2 nM | – | – |
| S{Beta-27}-[2-[2-[[2-[2-[2-[[2-[2-[2-[[(4S)-4-carboxy-4-(17-carboxyheptadecanoyl-amino)butanoyl]amino]ethoxy]ethoxy]acetyl]amino]ethoxy]ethoxy]acetyl]amino]-eth … (ligand, Cys27 of the GLP-1 part (GLP-1(7-37) numbering; residue 21 of the chain) S-alkylated with substituent Chem. 7) HGEGTFTSDVSSYLEEQAAKCFIAWLVKGGGGAQPGAQPGAQPGAQPAHPIPDSSPLLQFGGQVRQRYLYTDDAQQTEAHLEIREDGTVGGAADQSPESLLQLKALKPGVIQILGVKTSRFLCQRPDGALYGSLHFDPEACSFRELLLEDGYNVYQSEAHGLPLHLPGQKSPHRDPAPRGPARFLPLPGLPPALPEPPGILAPQPPDVGSSDPLSLVGGSQGRSPSYES | 13.8 pM | 78.7 pM | 0.64 nM | 0.45 nM | – | – |
| S{Beta-27}-[2-[2-[[2-[2-[2-[[2-[2-[2-[[(4S)-4-carboxy-4-(17-carboxyheptadecanoyl-amino)butanoyl]amino]ethoxy]ethoxy]acetyl]amino]ethoxy]ethoxy]acetyl]amino]-eth … (ligand, Cys27 of the GLP-1 part (GLP-1(7-37) numbering; residue 21 of the chain) and Cys180 of the FGF21 part (FGF21(1-181) numbering; residue 228 of the chain) each S-alkylated with substituent Chem. 7) HGEGTFTSDVSSYLEEQAAKCFIAWLVKGGGGAQPGAQPGAQPGAQPAHPIPDSSPLLQFGGQVRQRYLYTDDAQQTEAHLEIREDGTVGGAADQSPESLLQLKALKPGVIQILGVKTSRFLCQRPDGALYGSLHFDPEACSFRELLLEDGYNVYQSEAHGLPLHLPGQKSPHRDPAPRGPARFLPLPGLPPALPEPPGILAPQPPDVGSSDPLSLVGPSQGRSPSYCS | 18 pM | 391 pM | 7.57 nM | 0.2 nM | – | – |
| S{Beta-27}-[2-[2-[[2-[2-[2-[[2-[2-[2-[[(4S)-4-carboxy-4-(17-carboxyheptadecanoyl-amino)butanoyl]amino]ethoxy]ethoxy]acetyl]amino]ethoxy]ethoxy]acetyl]amino]-eth … (ligand, Cys27 of the GLP-1 part (GLP-1(7-37) numbering; residue 21 of the chain) S-alkylated with substituent Chem. 7) HGEGTFTSDVSSYLEEQAAKCFIAWLVKGGGGAQPGAQPGAQPGAQPAHPIPDSSPLLQFGGQVRQRYLYTDDAQQTEAHLEIREDGTVGGAADQSPESLLQLKALKPGVIQILGVKTSRFLCQRPDGALYGSLHFDPEACSFRELLLEDGYNVYQSEAHGLPLHLPGQKSPHRDPAPRGPARFLPLPGLPPALPEPPGILAPQPPDVGSSDPLSLVGGSQGRSPSYAS | 16.9 pM | 75.4 pM | 0.38 nM | 0.13 nM | – | – |
| S{Beta-27}-[2-[2-[[2-[2-[2-[[2-[2-[2-[[(4S)-4-carboxy-4-(17-carboxyheptadecanoyl-amino)butanoyl]amino]ethoxy]ethoxy]acetyl]amino]ethoxy]ethoxy]acetyl]amino]-eth … (ligand, Cys27 of the GLP-1 part (GLP-1(7-37) numbering; residue 21 of the chain) S-alkylated with substituent Chem. 7) HGEGTFTSDVSSYLEEQAARCFIAWLVKGGGGAQPGAQPGAQPGAQPAHPIPDSSPLLQFGGQVRQRYLYTDDAQQTEAHLEIREDGTVGGAADQSPESLLQLKALKPGVIQILGVKTSRFLCQRPDGALYGSLHFDPEACSFRELLLEDGYNVYQSEAHGLPLHLPGQKSPHRDPAPRGPARFLPLPGLPPALPEPPGILAPQPPDVGSSDPLSLVGGSQGRSPSYES | 17.2 pM | 104 pM | 0.43 nM | 0.17 nM | – | – |
| [8G, 22E, 26R, 36G]GLP-1(7-37)-(GAQP)x2, … (ligand, Cys of the spacer (residue 40 of the chain) and Cys180 of the FGF21 part (FGF21(1-181) numbering; residue 229 of the chain) each S-alkylated with substituent Chem. 7) HGEGTFTSDVSSYLEEQAAREFIAWLVKGGGGAQPGAQPCGAQPGAQPAHPIPDSSPLLQFGGQVRQRYLYTDDAQQTEAHLEIREDGTVGGAADQSPESLLQLKALKPGVIQILGVKTSRFLCQRPDGALYGSLHFDPEACSFRELLLEDGYNVYQSEAHGLPLHLPGQKSPHRDPAPRGPARFLPLPGLPPALPEPPGILAPQPPDVGSSDPLSLVGPSQGRSPSYCSHGEGTFTSDVSSYLEEQAAREFIAWLVKGGGGAQPGAQPCGAQPGAQPAHPIPDSSPLLQFGGQVRQRYLYTDDAQQTEAHLEIREDGTVGGAADQSPESLLQLKALKPGVIQILGVKTSRFLCQRPDGALYGSLHFDPEACSFRELLLEDGYNVYQSEAHGLPLHLPGQKSPHRDPAPRGPARFLPLPGLPPALPEPPGILAPQPPDVGSSDPLSLVGPSQGRSPSYCS | 29.5 pM | 450 pM | 18 nM | 0.22 nM | – | – |
| [8G, 22E, 36G]GLP-1(7-37)-(GAQP)x2, … (ligand, Cys of the spacer (residue 40 of the chain) S-alkylated with substituent Chem. 7) HGEGTFTSDVSSYLEEQAAKEFIAWLVKGGGGAQPGAQPCGAQPGAQPAHPIPDSSPLLQFGGQVRQRYLYTDDAQQTEAHLEIREDGTVGGAADQSPESLLQLKALKPGVIQILGVKTSRFLCQRPDGALYGSLHFDPEACSFRELLLEDGYNVYQSEAHGLPLHLPGQKSPHRDPAPRGPARFLPLPGLPPALPEPPGILAPQPPDVGSSDPLSLVGGSQGRSPSYAS | 92.3 pM | 394 pM | 1.36 nM | 0.19 nM | – | – |
